The values that follow are results of earlier work, collected in article PMC7564214.

pKd: −log10 of the molar value.

The series has as its target LC3B (Homo sapiens) (UniProt Q9GZQ8).

TRIM5α (from UniProt Q9C035): the pKd (in general, the negative decadic logarithm of the Kd, by convention in mol/L) was 4.00.
